These results are taken from publication PMC7911073, “Overproduction of Human Zip (SLC39) Zinc Transporters in Saccharomyces cerevisiae for Biophysical Characterization” (Cells, 2021).

Data set [1] concerns the molecule itself. As to the kind of experiment: SDS-PAGE with Coomassie staining of SEC-pure samples (monomer and dimer bands); fractions of the main SEC peak in DDM + CHS.
Data set [2] deals with the molecule itself. As to the kind of experiment: SDS-PAGE with Coomassie staining and in-gel GFP fluorescence (monomer and dimer bands); IMAC eluate of hZIP1-TEV-GFP-His solubilized in 2% DDM + 0.68% CHS.
Data set [3] concerns the molecule itself. In words: SDS-PAGE with Coomassie staining and immunoblot by the tag (monomer and dimer bands); affinity-pure fractions (IMAC or StrepII-tag affinity) of N-terminal hZIP1 fusions solubilized in 2% DDM + 0.2% CHS; blot with 6xHis mAb-HRP or Strep-Tactin HRP.

B1: StrepII-TEV-hZIP1 (natural protein, human, UniProt Q9NY26 1-324, looked up)
chain: MGPWGEPELLVWRPEAVASEPPVPVGLEVKLGALVLLLVLTLLCSLVPICVLRRPGANHEGSASRQKALSLVSCFAGGVFLATCLLDLLPDYLAAIDEALAALHVTLQFPLQEFILAMGFFLVLVMEQITLAYKEQSGPSPLEETRALLGTVNGGPQHWHDGPGVPQASGAPATPSALRACVLVFSLALHSVFEGLAVGLQRDRARAMELCLALLLHKGILAVSLSLRLLQSHLRAQVVAGCGILFSCMTPLGIGLGAALAESAGPLHQLAQSVLEGMAAGTFLYITFLEILPQELASSEQRILKVILLLAGFALLTGLLFIQI
notes: human ZIP1 (hZIP1), full-length, codon-optimized cDNA; UniProt Q9NY26; A TEV protease site stands between the StrepII tag and hZIP1; not cleaved here; Predicted MW 36.5 kDa; also called N-terminal hZIP1 fusion; not shown: StrepII, N-terminal, kept
Consider B1, for which the binding result in data set [1] is “binds”.

B2: hZIP1-TEV-GFP-His (natural protein, human, UniProt Q9NY26 1-324, looked up)
chain: MGPWGEPELLVWRPEAVASEPPVPVGLEVKLGALVLLLVLTLLCSLVPICVLRRPGANHEGSASRQKALSLVSCFAGGVFLATCLLDLLPDYLAAIDEALAALHVTLQFPLQEFILAMGFFLVLVMEQITLAYKEQSGPSPLEETRALLGTVNGGPQHWHDGPGVPQASGAPATPSALRACVLVFSLALHSVFEGLAVGLQRDRARAMELCLALLLHKGILAVSLSLRLLQSHLRAQVVAGCGILFSCMTPLGIGLGAALAESAGPLHQLAQSVLEGMAAGTFLYITFLEILPQELASSEQRILKVILLLAGFALLTGLLFIQI
notes: human ZIP1 (hZIP1), full-length, codon-optimized cDNA synthesized by GenScript; UniProt Q9NY26; A TEV protease site (ENLYFQ↓SQF) stands between hZIP1 and GFP-His8; the fusion could not be cleaved by TEV protease; Predicted MW 63.3 kDa; also called hZIP1 C-terminally fused to TEV-GFP-His-tag; SLC39 family member; source: S. cerevisiae PAP1500, in whole-cell lysate; also purified from crude …
Turning to B2, the binding result in data set [2] is recorded as “binds”.

B3: His-TEV-hZIP1 (natural protein, human, UniProt Q9NY26 1-324, looked up)
chain: MGPWGEPELLVWRPEAVASEPPVPVGLEVKLGALVLLLVLTLLCSLVPICVLRRPGANHEGSASRQKALSLVSCFAGGVFLATCLLDLLPDYLAAIDEALAALHVTLQFPLQEFILAMGFFLVLVMEQITLAYKEQSGPSPLEETRALLGTVNGGPQHWHDGPGVPQASGAPATPSALRACVLVFSLALHSVFEGLAVGLQRDRARAMELCLALLLHKGILAVSLSLRLLQSHLRAQVVAGCGILFSCMTPLGIGLGAALAESAGPLHQLAQSVLEGMAAGTFLYITFLEILPQELASSEQRILKVILLLAGFALLTGLLFIQI
notes: human ZIP1 (hZIP1), full-length, codon-optimized cDNA; UniProt Q9NY26; A TEV protease site stands between the His8 tag and hZIP1; also called N-terminal hZIP1 fusion; source: S. cerevisiae PAP1500, purified from crude membranes solubilized in 2% DDM + 0.2% CHS (IMAC); not shown: His8, N-terminal, kept
On to B3, for which the binding result in data set [3] is “binds”.
